T1: human neuromedin U receptor 1 (human, UniProt Q9HB89 24-426)
T1 sequence (looked up): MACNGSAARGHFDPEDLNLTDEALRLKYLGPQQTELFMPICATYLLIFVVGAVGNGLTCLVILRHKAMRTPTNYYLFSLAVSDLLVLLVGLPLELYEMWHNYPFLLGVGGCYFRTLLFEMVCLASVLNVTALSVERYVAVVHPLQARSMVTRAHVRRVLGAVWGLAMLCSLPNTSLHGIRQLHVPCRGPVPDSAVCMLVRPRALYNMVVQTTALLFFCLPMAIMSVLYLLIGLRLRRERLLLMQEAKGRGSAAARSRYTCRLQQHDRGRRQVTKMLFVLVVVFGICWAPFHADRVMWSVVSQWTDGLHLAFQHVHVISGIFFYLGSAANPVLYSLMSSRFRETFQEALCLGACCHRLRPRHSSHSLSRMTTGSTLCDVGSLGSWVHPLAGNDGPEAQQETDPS

B1: C20DA-gGlu4-Sar12-AEPipAc-Tyr-Phe-NMeLeu-Nle-Dbu-Pro-Arg-Gly-NH2 (peptide)
peptide: EEEEXXXXXXXXXXXXXYFLXXPRG
HELM: PEPTIDE1{[O=C(O)CCCCCCCCCCCCCCCCCCC(=O)[*:2]].[gGlu].[gGlu].[gGlu].[gGlu].[Sar].[Sar].[Sar].[Sar].[Sar].[Sar].[Sar].[Sar].[Sar].[Sar].[Sar].[Sar].[O=C(CN1CCN(CCN[*:1])CC1)[*:2]].Y.F.[meL].[Nle].[Dab].P.R.G.[am]}$$$$V2.0
SMILES: CCCC[C@H](NC(=O)[C@H](CC(C)C)N(C)C(=O)[C@H](Cc1ccccc1)NC(=O)[C@H](Cc1ccc(O)cc1)NC(=O)CN1CCN(CCNC(=O)CN(C)C(=O)CN(C)C(=O)CN(C)C(=O)CN(C)C(=O)CN(C)C(=O)CN(C)C(=O)CN(C)C(=O)CN(C)C(=O)CN(C)C(=O)CN(C)C(=O)CN(C)C(=O)CN(C)C(=O)CC[C@H](NC(=O)CC[C@H](NC(=O)CC[C@H](NC(=O)CC[C@H](NC(=O)CCCCCCCCCCCCCCCCCCC(=O)O)C(=O)O)C(=O)O)C(=O)O)C(=O)O)CC1)C(=O)N[C@@H](CCN)C(=O)N1CCC[C@H]1C(=O)N[C@@H](CCCNC(=N)N)C(=O)NCC(N)=O
B2: C20DA-gGlu3-Sar15-PipAc-Tyr-Phe-NMeLeu-Nle-Orn-Pro-Arg-Gly-NH2 (peptide)
peptide: EEEXXXXXXXXXXXXXXXXYFLXXPRG
HELM: PEPTIDE1{[O=C(O)CCCCCCCCCCCCCCCCCCC(=O)[*:2]].[gGlu].[gGlu].[gGlu].[Sar].[Sar].[Sar].[Sar].[Sar].[Sar].[Sar].[Sar].[Sar].[Sar].[Sar].[Sar].[Sar].[Sar].[Sar].[O=C(CN1CCN([*:1])CC1)[*:2]].Y.F.[meL].[Nle].[Orn].P.R.G.[am]}$$$$V2.0
SMILES: CCCC[C@H](NC(=O)[C@H](CC(C)C)N(C)C(=O)[C@H](Cc1ccccc1)NC(=O)[C@H](Cc1ccc(O)cc1)NC(=O)CN1CCN(C(=O)CN(C)C(=O)CN(C)C(=O)CN(C)C(=O)CN(C)C(=O)CN(C)C(=O)CN(C)C(=O)CN(C)C(=O)CN(C)C(=O)CN(C)C(=O)CN(C)C(=O)CN(C)C(=O)CN(C)C(=O)CN(C)C(=O)CN(C)C(=O)CN(C)C(=O)CC[C@H](NC(=O)CC[C@H](NC(=O)CC[C@H](NC(=O)CCCCCCCCCCCCCCCCCCC(=O)O)C(=O)O)C(=O)O)C(=O)O)CC1)C(=O)N[C@@H](CCCN)C(=O)N1CCC[C@H]1C(=O)N[C@@H](CCCNC(=N)N)C(=O)NCC(N)=O
B3: C18DA-gGlu3-Sar15-PipAc-Tyr-Phe-NMeLeu-Nle-Dbu-NMeAla-Arg-Gly-NH2 (peptide)
peptide: EEEXXXXXXXXXXXXXXXXYFLXXARG
HELM: PEPTIDE1{[O=C(O)CCCCCCCCCCCCCCCCC(=O)[*:2]].[gGlu].[gGlu].[gGlu].[Sar].[Sar].[Sar].[Sar].[Sar].[Sar].[Sar].[Sar].[Sar].[Sar].[Sar].[Sar].[Sar].[Sar].[Sar].[O=C(CN1CCN([*:1])CC1)[*:2]].Y.F.[meL].[Nle].[Dab].[meA].R.G.[am]}$$$$V2.0
SMILES: CCCC[C@H](NC(=O)[C@H](CC(C)C)N(C)C(=O)[C@H](Cc1ccccc1)NC(=O)[C@H](Cc1ccc(O)cc1)NC(=O)CN1CCN(C(=O)CN(C)C(=O)CN(C)C(=O)CN(C)C(=O)CN(C)C(=O)CN(C)C(=O)CN(C)C(=O)CN(C)C(=O)CN(C)C(=O)CN(C)C(=O)CN(C)C(=O)CN(C)C(=O)CN(C)C(=O)CN(C)C(=O)CN(C)C(=O)CN(C)C(=O)CC[C@H](NC(=O)CC[C@H](NC(=O)CC[C@H](NC(=O)CCCCCCCCCCCCCCCCC(=O)O)C(=O)O)C(=O)O)C(=O)O)CC1)C(=O)N[C@@H](CCN)C(=O)N(C)[C@@H](C)C(=O)N[C@@H](CCCNC(=N)N)C(=O)NCC(N)=O
B4: C20DA-gGlu4-Sar15-AEPipAc-Tyr-Phe-NMeLeu-Nle-Orn-NMeAla-Arg-Gly-NH2 (peptide)
peptide: EEEEXXXXXXXXXXXXXXXXYFLXXARG
HELM: PEPTIDE1{[O=C(O)CCCCCCCCCCCCCCCCCCC(=O)[*:2]].[gGlu].[gGlu].[gGlu].[gGlu].[Sar].[Sar].[Sar].[Sar].[Sar].[Sar].[Sar].[Sar].[Sar].[Sar].[Sar].[Sar].[Sar].[Sar].[Sar].[O=C(CN1CCN(CCN[*:1])CC1)[*:2]].Y.F.[meL].[Nle].[Orn].[meA].R.G.[am]}$$$$V2.0
SMILES: CCCC[C@H](NC(=O)[C@H](CC(C)C)N(C)C(=O)[C@H](Cc1ccccc1)NC(=O)[C@H](Cc1ccc(O)cc1)NC(=O)CN1CCN(CCNC(=O)CN(C)C(=O)CN(C)C(=O)CN(C)C(=O)CN(C)C(=O)CN(C)C(=O)CN(C)C(=O)CN(C)C(=O)CN(C)C(=O)CN(C)C(=O)CN(C)C(=O)CN(C)C(=O)CN(C)C(=O)CN(C)C(=O)CN(C)C(=O)CN(C)C(=O)CC[C@H](NC(=O)CC[C@H](NC(=O)CC[C@H](NC(=O)CC[C@H](NC(=O)CCCCCCCCCCCCCCCCCCC(=O)O)C(=O)O)C(=O)O)C(=O)O)C(=O)O)CC1)C(=O)N[C@@H](CCCN)C(=O)N(C)[C@@H](C)C(=O)N[C@@H](CCCNC(=N)N)C(=O)NCC(N)=O
B5: C18DA-gGlu3-Sar12-PipAc-Tyr-Phe-NMeLeu-Nle-Arg-Pro-Arg-Gly-NH2 (peptide)
peptide: EEEXXXXXXXXXXXXXYFLXRPRG
HELM: PEPTIDE1{[O=C(O)CCCCCCCCCCCCCCCCC(=O)[*:2]].[gGlu].[gGlu].[gGlu].[Sar].[Sar].[Sar].[Sar].[Sar].[Sar].[Sar].[Sar].[Sar].[Sar].[Sar].[Sar].[O=C(CN1CCN([*:1])CC1)[*:2]].Y.F.[meL].[Nle].R.P.R.G.[am]}$$$$V2.0
SMILES: CCCC[C@H](NC(=O)[C@H](CC(C)C)N(C)C(=O)[C@H](Cc1ccccc1)NC(=O)[C@H](Cc1ccc(O)cc1)NC(=O)CN1CCN(C(=O)CN(C)C(=O)CN(C)C(=O)CN(C)C(=O)CN(C)C(=O)CN(C)C(=O)CN(C)C(=O)CN(C)C(=O)CN(C)C(=O)CN(C)C(=O)CN(C)C(=O)CN(C)C(=O)CN(C)C(=O)CC[C@H](NC(=O)CC[C@H](NC(=O)CC[C@H](NC(=O)CCCCCCCCCCCCCCCCC(=O)O)C(=O)O)C(=O)O)C(=O)O)CC1)C(=O)N[C@@H](CCCNC(=N)N)C(=O)N1CCC[C@H]1C(=O)N[C@@H](CCCNC(=N)N)C(=O)NCC(N)=O
B6: C18DA-gGlu4-Sar12-AEPipAc-Tyr-Phe-NMeLeu-Nle-Arg-Pro-Arg-Gly-NH2 (peptide)
peptide: EEEEXXXXXXXXXXXXXYFLXRPRG
HELM: PEPTIDE1{[O=C(O)CCCCCCCCCCCCCCCCC(=O)[*:2]].[gGlu].[gGlu].[gGlu].[gGlu].[Sar].[Sar].[Sar].[Sar].[Sar].[Sar].[Sar].[Sar].[Sar].[Sar].[Sar].[Sar].[O=C(CN1CCN(CCN[*:1])CC1)[*:2]].Y.F.[meL].[Nle].R.P.R.G.[am]}$$$$V2.0
SMILES: CCCC[C@H](NC(=O)[C@H](CC(C)C)N(C)C(=O)[C@H](Cc1ccccc1)NC(=O)[C@H](Cc1ccc(O)cc1)NC(=O)CN1CCN(CCNC(=O)CN(C)C(=O)CN(C)C(=O)CN(C)C(=O)CN(C)C(=O)CN(C)C(=O)CN(C)C(=O)CN(C)C(=O)CN(C)C(=O)CN(C)C(=O)CN(C)C(=O)CN(C)C(=O)CN(C)C(=O)CC[C@H](NC(=O)CC[C@H](NC(=O)CC[C@H](NC(=O)CC[C@H](NC(=O)CCCCCCCCCCCCCCCCC(=O)O)C(=O)O)C(=O)O)C(=O)O)C(=O)O)CC1)C(=O)N[C@@H](CCCNC(=N)N)C(=O)N1CCC[C@H]1C(=O)N[C@@H](CCCNC(=N)N)C(=O)NCC(N)=O
B7: C20DA-gGlu3-Sar12-PipAc-Tyr-Phe-NMeLeu-Nle-Arg-Pro-Arg-Gly-NH2 (peptide)
peptide: EEEXXXXXXXXXXXXXYFLXRPRG
HELM: PEPTIDE1{[O=C(O)CCCCCCCCCCCCCCCCCCC(=O)[*:2]].[gGlu].[gGlu].[gGlu].[Sar].[Sar].[Sar].[Sar].[Sar].[Sar].[Sar].[Sar].[Sar].[Sar].[Sar].[Sar].[O=C(CN1CCN([*:1])CC1)[*:2]].Y.F.[meL].[Nle].R.P.R.G.[am]}$$$$V2.0
SMILES: CCCC[C@H](NC(=O)[C@H](CC(C)C)N(C)C(=O)[C@H](Cc1ccccc1)NC(=O)[C@H](Cc1ccc(O)cc1)NC(=O)CN1CCN(C(=O)CN(C)C(=O)CN(C)C(=O)CN(C)C(=O)CN(C)C(=O)CN(C)C(=O)CN(C)C(=O)CN(C)C(=O)CN(C)C(=O)CN(C)C(=O)CN(C)C(=O)CN(C)C(=O)CN(C)C(=O)CC[C@H](NC(=O)CC[C@H](NC(=O)CC[C@H](NC(=O)CCCCCCCCCCCCCCCCCCC(=O)O)C(=O)O)C(=O)O)C(=O)O)CC1)C(=O)N[C@@H](CCCNC(=N)N)C(=O)N1CCC[C@H]1C(=O)N[C@@H](CCCNC(=N)N)C(=O)NCC(N)=O
B8: C20DA-gGlu4-Sar12-AEPipAc-Tyr-Phe-NMeLeu-Nle-Orn-NMeAla-Arg-Gly-NH2 (peptide)
peptide: EEEEXXXXXXXXXXXXXYFLXXARG
HELM: PEPTIDE1{[O=C(O)CCCCCCCCCCCCCCCCCCC(=O)[*:2]].[gGlu].[gGlu].[gGlu].[gGlu].[Sar].[Sar].[Sar].[Sar].[Sar].[Sar].[Sar].[Sar].[Sar].[Sar].[Sar].[Sar].[O=C(CN1CCN(CCN[*:1])CC1)[*:2]].Y.F.[meL].[Nle].[Orn].[meA].R.G.[am]}$$$$V2.0
SMILES: CCCC[C@H](NC(=O)[C@H](CC(C)C)N(C)C(=O)[C@H](Cc1ccccc1)NC(=O)[C@H](Cc1ccc(O)cc1)NC(=O)CN1CCN(CCNC(=O)CN(C)C(=O)CN(C)C(=O)CN(C)C(=O)CN(C)C(=O)CN(C)C(=O)CN(C)C(=O)CN(C)C(=O)CN(C)C(=O)CN(C)C(=O)CN(C)C(=O)CN(C)C(=O)CN(C)C(=O)CC[C@H](NC(=O)CC[C@H](NC(=O)CC[C@H](NC(=O)CC[C@H](NC(=O)CCCCCCCCCCCCCCCCCCC(=O)O)C(=O)O)C(=O)O)C(=O)O)C(=O)O)CC1)C(=O)N[C@@H](CCCN)C(=O)N(C)[C@@H](C)C(=O)N[C@@H](CCCNC(=N)N)C(=O)NCC(N)=O

Each binder was assayed against T1, human neuromedin U receptor 1 (assay: cell-based or functional assay).

Row | EC50 (hNMUR1) buffer | Binder
1 | 860 nM | B1
2 | 470 nM | B2
3 | > 1000 nM | B3
4 | 1400 nM | B4
5 | 110 nM | B5
6 | 220 nM | B6
7 | 72 nM | B7
8 | 1200 nM | B8

Source: patent publication US20240279278A1, “NMU RECEPTOR 2 AGONISTS” (Boehringer Ingelheim International GmbH, priority 2023, published 2024)
